Reference: the nanobody polyreactivity screen of Harvey et al. (2022)

Assay: yeast display, Sf9 membrane polyspecificity reagent, FACS + sequencing; frameworks hold sequencing errors
In short: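 Polyreactivity labels are assigned by the sorting gate from which each nanobody was recovered. The gates were low and high (top ~1%), set on anti-HA fluorescence for expression and streptavidin fluorescence for reagent binding. Before sorting, galactose-induced (36–48 hours) yeast display cells were stained for 1 hour at 4 °C with 10% biotinylated, detergent-solubilized Sf9 membrane reagent.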

Row | Sequence | polyreactivity (PSR sort gate)
1 | QVQLVESGGGLVQAGGSLRLSCAASGFIFAGTAMGWYRQAPGKEWELVAAITRSGTNTYYADSVKGRFTISRDHAKNTVFLQMNSLKPEDTAVYYCNATVRYRYPYGYWGQGTQVTVSS | high polyreactivity
2 | QVQLVESGGGLVQAGGSLRLSCAASGSIFAAYTMGWYRQAPGKQRELVAAISSGTRTNYADSVKGRFTISRDNAKNTVYLQLNSLKPEDTAVYYWNADVSALWWPEEWYNASEFDYWGQGTQVTVSS | low polyreactivity
3 | QVQLVESGGGLVQAGGSLRLSCAASGSIFVLYAMGWYRQAPGKERELVAAISRGVGGTNYADSVKGRFTISRDNAKNTVYLQMNSLKPEDTAVYYCAAQTLRWSHYYYWGQGTQVTVSS | high polyreactivity
4 | QVQLVESGGGLVQAGGSLRLSCASSGFTFRYYAMGWYRQAPGKERELVAAITGNGGSTYYADSVKGRFTISRDNAKNTVYFQMNSLKPEDTAVYYCNKPYFTASGDRFGYWGQVTQVTVSS | high polyreactivity
5 | QVQLVESGGGLDQAGGSLRLSCAASGSTFANNAMGWYREAPGKERELVAAISSGGSTNYADSVKGRFTISRDNAKNTGYLQMNSLKPEDTAVYYCNADAYDEIKYGYWGQGTQVTVSS | low polyreactivity
6 | QVQLVESGGGLVQAAGSLRLICAASGLTFGANDMGWSRQAPGTERELVAAIDWSGGSTFFADSVKGRFTISRDNAKNTVYLQMNTLKPEDTAVYYCAALGFGYPYPEYDSWGQGTQVTVSA | low polyreactivity
7 | QVQHVESGGGLVQAGGSLRLSCAASGITLNSYAMGWYRQAPGTERELVAAISSDGTYYADSVKGRFTISRDNAKNTVYLQMNSLKPEDTAVYYCAAERNHGLVGSESVGRNDYWGQGTQVTVSS | low polyreactivity
8 | QVQLVESGGGLVQAGGSLRLSCAASGLIFWYSAMGWYRQAPGKERELVAAISSGGSTNYADSVKGRFTISRDNAKNTVYLQMNSLKPEDTAVYYCNVYTYRFHTARQAVDYWGQGTQVTVSS | low polyreactivity
9 | QVQLVESGGGLVQAGGSLRLSCAASGSIFDSYVMGWYRQAPGKERELVAAITYSGGSTYADSVKGRFTISRDNAKNTVYLQMNSLKPEDTAVYYCAAASYFYLYLLEDYWGQGTQVTVSS | low polyreactivity
10 | QVQLVESGGGLVQAGGSLRLSCAASGGTFEFYTMGWYRQAPGKERELVAVINASGDSTYYADSVKGRFTISRDNAKNTVYLQMNSLKPEDTAVYYCAADHRGEYDYWGQGTQVTVSS | low polyreactivity
11 | QVELVESGGGLVQAGGSLRLSCAASGRIFFYNGMGWYRQAPGKERELVAAINRSGGSTYYADSVKGRFTISRDNAKNTVYLQMNSLKPEDTAVYYCNAASFTVPMDYWGHGTQVTVSS | low polyreactivity
12 | QVQLVESGGGLVQAGGSLRLSCAASGRIFRGNVMGWYRQAPGKERELVAVIRSSSGRTYYADSVKGRFTISRDNAKNTVYLQMNSLKPEDTAVYYCAAKSVWGQGTQVTVSS | high polyreactivity
13 | QVQLVESGGGLVQAGGSLPLTCAASGRILRAYAMGWYRQAPGNEMELVAAISFSGGSTYYADSVKGRFTISRDYAKNYVYLQINSLKPEDTAVYYCNALYTSYYRPSCMGYWGQGTQVTVSS | high polyreactivity
14 | QVQLVESGGGLVQAGGSLRLSCAASGRTFYHNAMGWYRQAPGKERELVATINSGGSTYADSVKGRFTISRDNAKNTVYLQMISLKPEDTAVYYCASTFWSRSRFYYRYDYWGQGTQVTVSS | high polyreactivity
15 | QVQLVESGGGLVQAGGSLRLSCAASGGTFRAYVMGWYRQAPGKERELVAAISRSGTRTYYADSVKGRFTISRDNAKNTVYLQMNSLKPEDTAVYYCAAQAGVYYDYEYWGQGTLVTVSS | high polyreactivity
16 | QVQLVESGGGLVQAGGSLRLSCAASGSTFQIYAMGWYRQAPGKEWELVAAITSSSSTNYADSVKGRFTISRDNAKNTVYLQMNSLKPEDTAVYYCAADVSWRSNWYDYWGQGTQVTVSS | low polyreactivity

Row | Sequence | polyreactivity (PSR sort gate)
17 | QVQLVESGGGLVQAGGSLRLSCAASGITFYRNAMGWYRKAPGKERELLAAISWSGGRTYYADSVKGRFTISRDNAKNTVYLQMNSLKPEDTAVYYCAASSWSSYYRPKYYWGQGTQVTVSS | high polyreactivity
18 | QVQLVESGGGLVQAGGSLRLSCAASGITFSYNAMGWYRQAPGKERELVAAISSNSDSTYYADSVKGRFTISRDYAKNTVYLQMNRLKPEDTAVYYCAADTPDAPDYSGFYYWGQGTQVTVSS | low polyreactivity
19 | QVQLVESGGGLVQAGGILRLSCAASGSTFGFNAMGWYRQAPGKERELVASITSGDSTYYADSVKGRFTISRDNAKNTVYLQMNSLKPEDTAVYYCAKVGGGGQAGDNPILSDYWGQGTQVTVSS | low polyreactivity
20 | QVQLVESGGGLVQAGGSLRLSCAASGLTFWPNAMGWYRQAPGKERELVAAISYTGGITYYADSVKGRFTISRDNAKNTDYLQMNSLKPEDTAVYSCNKGRRGYYSVRRYDYWGQGTQVTVSS | low polyreactivity
21 | QVQLVESGGGLVQAGGSLRLSCAASGSIFDKNAMGWYRQAPGKERELVAAIRRTSTTYYADSVKGRFTISRDNAKKTVYLQMNSLKPEDTAVYYCAATYGSGYWYPRYYYWGQGTQVTVSS | high polyreactivity
22 | HVQLVESGGGLVQARGSLRLSCAASGSTFDNYTMGWYRQAPGKERELVAAITRNSGSTYYADSVKGRFTISRDNEKNSVYLHMNSLKPEDTAVYYCAADSYYRRYFGWYEYWGQGTQVTVSS | high polyreactivity
23 | QVQLVESGGGLVQAGGSLRLSCAASGSIFDYYVMGWYRQSPGKERELVAAISLSGGSTYYADSVKGRFTISRDNAKNTVYLQMNSLKPEDTAVYYCNADSQWYDYDYWGQGTQVTVSS | high polyreactivity
24 | QFHHVESGGGLVQAGGSLRLTCAATGIIILGNAKGWYRQAPGKERELVATITSGGTTNYADSVKGRFTISRDNAKNTVYLQMNSLIPEDTAVYYCNKRSYDQQEYEYDYWGQGTQVTVSS | low polyreactivity
25 | QVQLVDSGGGIVQAGGSLRLSCAASGSTLKYNAMGWYRQAPGKERELVAAISTSGGNTYYADSVKGRFTISRDNAKNTVYLQMNSLKPEDTAVYYCAKVLGYYYYDYDSWGQGTQVTVSS | low polyreactivity
26 | QVHLVESGGGLVQAGGSLRLSCAASGSTIRSYAMGWNRQAPGKERELVARIAYSSGGTYYADSVKGRFTISRDNAKNTVYLQMNSLKPEDTAVYYCAKPSPITSYPRFDYWGQGTQVTVSS | high polyreactivity
27 | QVQLVESRRGLVQAGASLRLSCAASGSTFYGYGMGWYRQAPGKERELVAAITGSGDTTYYADSVKGRFTISRDNAKNTVYLQMNSLKPEDTAVYYCNARWHAEYDYWGQGTQVTVSS | low polyreactivity
28 | QVQLVESGGGLVQAGGSLRLSCAASGRIFYRNAMGWYRPAPGKERELVASITSAGRTYYADSVKGRFTISRDNAKNTVYLQMNSLKPEDTAVYYCAVRVAVLLNLYGYWGQGTQVTVSS | low polyreactivity
29 | QVQLVESGGGLVQAGGSLRLSCAASGYIFIWYDMGGYRQAPGKERELVAAISGSGGSTYYADSVKGRFTISRDNAKNTVYLQMNSLKPEDTAVYYCAAVPAHFYGYDYWGQGTQVTVSS | low polyreactivity
30 | QVQLVESGGGLVQAGGRLRLSCAASGFIIVYYAAMGWYRQAPGKERELVAAISSRDDSTTYADSVKGRFTISRDNAKNTVYLQMNSLKPEDTAVYYCNADLGGFYYVYAYNYWGQGTQVTVSS | low polyreactivity
31 | QVQLVESGGGLVQAGGSLRLSCAASGSIFPDYAMGWYRQAPGKERELVAAITTSGGNTYYADSVKGRFTISRDNAKNTVYLQMNSLKPEDTAVYYCAAEITYSYPGSPRRRDYWGQGTQLTVSS | low polyreactivity
32 | QVQLVESCGGLVQAGGSLRLSCAASGRTFFGYAMGGYRQAPGKERELVAAINWGGASTYYADSVKGRFTISRDNAKNTVYLQMNSLKPEETAVYYCAADSVPSRPTYGRYDYWGQGTQVTVSS | low polyreactivity
